Numbering of substitutions follows the chain as printed.
What was measured:
[1] = molecular target: T1, mCherry-H2B without HA tag (mCh-H2B) (UniProt P06899 1-126); assay: nuclear to cytoplasmic fluorescence ratio of FB-GFP in living U2OS cells lacking the HA tag
[2] = molecular target: T2, mitoNEET (Mito) fused to mCherry and a C-terminal smHA tag (Mito-mCh-smHA) (Homo sapiens (Human), UniProt Q9NZ45 1-33); assay: live-cell imaging, U2OS cells, FB-GFP fluorescence at mitochondria over background
T2 construct: also called smHA tagged Mito
T2 peptide: YPYDVPDYA

[3] = molecular target: T2, mitoNEET (Mito) fused to mCherry and a …; assay: live-cell imaging, U2OS cells; reference Mito-mCh-1×HA
[4] = molecular target: T1, mCherry-H2B without HA tag (mCh-H2B); assay: nuclear to cytoplasmic fluorescence ratio of the GFP-fused scFv in living U2OS cells with mCh-H2B lacking the HA tag
H2B-mCh-TrunTag = molecular target: T3, H2B-mCh-TrunTag; assay: live-cell fluorescence imaging of U2OS cells co-expressing the GFP-fused scFv and H2B-mCh-TrunTag; co-localization in the nucleus
T3 construct: not shown: Histone H2B, mCherry and the linkers between the parts
T3 peptide: LPGRWKPKM

H2B-mCh-OrigTag = molecular target: T4, H2B-mCh-OrigTag; assay: live-cell fluorescence imaging of U2OS cells co-expressing the GFP-fused scFv and H2B-mCh-OrigTag; co-localization in the nucleus
T4 construct: not shown: Histone H2B, mCherry and the linkers between the parts
T4 peptide: MSLPGRWKPKM

B1: χ15F11^HA chimeric anti-HA scFv fused to mEGFP (HA frankenbody, FB-GFP), expressed in cells (scFv, not shown: large carriers)
scFv: MAEVKLVESGGGLVKPGGSLKLSCAASGFTFSSYGMSWVRQTPEKRLEWVATISRGGSYTYYPDSVKGRFTISRDNAKNTLYLQMSSLRSEDTAIYYCARRETYDEKGFAYWGQGTTLTVSSGGGGSGGGGSGGGGSDIVLTQSPASLTVSLGQRATISCKSSQSLLNSGNQKNYLTWYQQKPGQPPKLLIYWASTRESGIPARFSGSGSGTDFTLNIHPVEEEDAATYYCQNDNSHPLTFGAGTKLEIGGGGSGGGGSGGGGSGGGGSGGGGS
notes: also called 15F11-HA-FB; pCMV-15F11-HA-mEGFP
binding result [1]: no binding
mitochondria to background fluorescent intensity ratio (Mito/Bg) [2]: 16.6 ratio
Mito/Bg ratio of smHA tagged Mito against 1×HA tagged Mito [3]: 4.7 times

B2: χ2E2^HA chimeric anti-HA scFv fused to mEGFP (scFv, not shown: large carriers)
scFv: B1 scFv with K5Q, G12D, E44D, R89K, I95M, T117S, L118V, T149A, A243G
notes: also called 2E2-HA-FB; pCMV-2E2-HA-mEGFP
binding result [4]: no binding

B3: χ15F11^HIV chimeric anti-HIV protease scFv fused to GFP (scFv)
scFv: MAEVKLVESGGGLVKPGGSLKLSCAASGFTFSRFGMHWVRQTPEKRLEWVAYISSGSSTIYYADTVKGRFTISRDNAKNTLYLQMSSLRSEDTAIYYCARSGGIERYDGTYYVMDYWGQGTTLTVSSGGGGSGGGGSGGGGSDIVLTQSPASLTVSLGQRATISCRASESVDYYGKSFMNWYQQKPGQPPKLLIYAASNQGSGIPARFSGSGSGTDFTLNIHPVEEEDAATYYCQQSKEVPWTFGAGTKLEI
notes: also called 15F11-HIV-FB; anti-HIV protease frankenbody
binding result (H2B-mCh-TrunTag): binds
binding result (H2B-mCh-OrigTag): binds
